Reference: patent US20260151494A1 (ARO BIOTHERAPEUTICS, published 2026)

Experiments:
[1] = biological target: T1, human apical domain of CD71 (human, UniProt P02786 189-383, limits assumed); test: primary ELISA; also: test concentration or dose not given here
T1 construct: domain: apical domain

[2] = biological target: T2, human CD71 extracellular domain (human, UniProt P02786 89-760); test: primary ELISA; also: test concentration or dose not given here
T2 construct: also called hCD71; CD71-ECD
T2 sequence (P02786 89-760): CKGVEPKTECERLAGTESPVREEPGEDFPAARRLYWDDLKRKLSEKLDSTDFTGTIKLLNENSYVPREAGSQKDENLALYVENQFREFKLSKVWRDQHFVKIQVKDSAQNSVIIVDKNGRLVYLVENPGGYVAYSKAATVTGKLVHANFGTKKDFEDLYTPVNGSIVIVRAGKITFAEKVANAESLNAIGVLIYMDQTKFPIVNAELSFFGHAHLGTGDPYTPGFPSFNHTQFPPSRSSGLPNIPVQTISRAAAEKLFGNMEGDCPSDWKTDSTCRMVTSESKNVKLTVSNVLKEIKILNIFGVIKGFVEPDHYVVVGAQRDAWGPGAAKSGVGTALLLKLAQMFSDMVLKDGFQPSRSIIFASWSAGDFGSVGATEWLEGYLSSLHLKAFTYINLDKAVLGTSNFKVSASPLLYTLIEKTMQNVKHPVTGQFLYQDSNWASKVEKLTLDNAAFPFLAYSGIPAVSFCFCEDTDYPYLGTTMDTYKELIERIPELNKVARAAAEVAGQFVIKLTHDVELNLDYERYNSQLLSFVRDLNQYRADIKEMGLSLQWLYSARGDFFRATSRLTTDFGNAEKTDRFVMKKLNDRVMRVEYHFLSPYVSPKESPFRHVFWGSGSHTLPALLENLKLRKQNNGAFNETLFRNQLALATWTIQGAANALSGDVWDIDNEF

[3] = biological target: T1, human apical domain of CD71; test: primary ELISA; signal over HSA control; as to RLU: test concentration or dose not given here
[4] = biological target: T2, human CD71 extracellular domain; test: primary ELISA; signal over HSA control; as to RLU: test concentration or dose not given here

T1 sequence (P02786 189-383 limits assumed): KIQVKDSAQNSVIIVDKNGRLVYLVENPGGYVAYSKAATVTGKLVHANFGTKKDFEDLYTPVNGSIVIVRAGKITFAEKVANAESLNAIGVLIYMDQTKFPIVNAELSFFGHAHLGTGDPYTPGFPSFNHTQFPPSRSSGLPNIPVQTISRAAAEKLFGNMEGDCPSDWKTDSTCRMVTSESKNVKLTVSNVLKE

RLU [1] | RLU [2] | Apical domain:HSA [3] | hCD71:HSA [4] | Binder
5.34e+06 RLU | 3.64e+06 RLU | 342 ratio | 233 ratio | CD71-binding FN3 domain SEQ ID NO 403 (designed binder) MLPAPKNLVVSRVTEDSARLSWTAPDAAFDSFYIAYAEPRPDGEAIVLDVPGSERSYDLTGLKPGTEYSVLIHGVKGGLLSSPLVADFTT
6.51e+06 RLU | 4.62e+06 RLU | 66 ratio | 47 ratio | CD71-binding FN3 domain SEQ ID NO 367 (designed binder) MLPAPKNLVVSRVTEDSARLSWTAPDAAFDSFYIAYAEPRPDGEAILLVVPGSERSYDLTGLKPGTEYSVLIHGVKGGLLSSPLVAFFTT
6.97e+06 RLU | 3.57e+06 RLU | 233 ratio | 120 ratio | CD71-binding FN3 domain SEQ ID NO 359 (designed binder) MLPAPKNLVVSRVTEDSARLSWTAPDAAFDSFLIPYAETSPSGEAIVLTVPGSERSYDLTGLKPGTEYSVLIHGVKGGDYSSPLSAIFTT
3.96e+06 RLU | 1.28e+06 RLU | 400 ratio | 130 ratio | CD71-binding FN3 domain SEQ ID NO 386 (designed binder) MLPAPKNLVVSRVTEDSARLSWTAPDAAFDSFYIAYAEPRPDGEAITLLVPGSERSYDLTGLKPGTEYSVLIHGVKGGLLSSPLSAIFTT
4.88e+06 RLU | 2.26e+06 RLU | 192 ratio | 89 ratio | CD71-binding FN3 domain SEQ ID NO 440 (designed binder) MLPAPKNLVVSRVTEDSARLSWTAPDAAFDSFEIVYAEWTQHGEAIVLTVPGSERSYDLTGLKPGTEYYVHIGGVKGGKWSPPLYAIFTT
4.29e+06 RLU | 1.09e+06 RLU | 135 ratio | 34 ratio | CD71-binding FN3 domain SEQ ID NO 388 (designed binder) MLPAPKNLVVSRVTEDSARLSWTAPDAAFDSFEIAYFEYCLNGEAIVLTVPGSERSYDLTGLKPGTEYWVQIGGVKGGTWSWPLSAIFTT
4.64e+06 RLU | 1.73e+06 RLU | 61 ratio | 23 ratio | CD71-binding FN3 domain SEQ ID NO 407 (designed binder) MLPAPKNLVVSRVTEDSARLSWTAPDAAFDSFEIAYFETCRTGEAIVLTVPGSERSYDLTGLKPGTEYRVWIGGVKGGVWSRPLSAIFTT
4.8e+06 RLU | 1.83e+06 RLU | 302 ratio | 115 ratio | CD71-binding FN3 domain SEQ ID NO 348 (designed binder) MLPAPKNLVVSRVTEDSARLSWTAPDAAFDSFEISYFENTWYGEAIVLTVPGSERSYDLTGLKPGTEYVVWIGGVKGGLWSKPLSAIFTT
5.42e+06 RLU | 2.38e+06 RLU | 144 ratio | 63 ratio | CD71-binding FN3 domain SEQ ID NO 352 (designed binder) MLPAPKNLVVSRVTEDSARLSWTAPDAAFDSFEIAYQELSLWGEAIVLTVPGSERSYDLTGLKPGTEYYVHIGGVKGGIWSSPLSAIFTT
4.78e+06 RLU | 1.93e+06 RLU | 131 ratio | 53 ratio | CD71-binding FN3 domain SEQ ID NO 390 (designed binder) MLPAPKNLVVSRVTEDSARLSWTAPDAAFDSFEIGYFERAWFGEAIVLTVPGSERSYDLTGLKPGTEYAVFIGGVKGGSYSYPLSAIFTT
5.59e+06 RLU | 4.96e+06 RLU | 161 ratio | 143 ratio | CD71-binding FN3 domain SEQ ID NO 438 (designed binder) MLPAPKNLVVSRVTEDSARLSWTAPDAAFDSFFIGYLEPQPPGEAIDLWVPGSERSYDLTGLKPGTEYNVTIQGVKGGFPSYPLLAIFTT
6.56e+06 RLU | 5.47e+06 RLU | 258 ratio | 215 ratio | CD71-binding FN3 domain SEQ ID NO 439 (designed binder) MLPAPKNLVVSRVTEDSARLSWTAPDAAFDSFFIGYLEPQPPGEAIHLFVPGSERSYDLTGLKPGTEYNVTIQGVKGGFPSVPLNAYFTT

Further lines, the binder ahead of its results:

Binder | RLU [1] | RLU [2] | Apical domain:HSA [3] | hCD71:HSA [4]
CD71-binding FN3 domain SEQ ID NO 370 (designed binder) MLPAPKNLVVSRVTEDSARLSWTAPDAAFDSFYIAYAEPRPDGEAIVLVVPGSERSYDLTGLKPGTEYSVLIHGVKGGLLSSPLSAHFTT | 4.83e+06 RLU | 2.13e+06 RLU | 480 ratio | 212 ratio
CD71-binding FN3 domain SEQ ID NO 374 (designed binder) MLPAPKNLVVSRVTEDSARLSWTAPDAAFDSFYIAYAEPRPDGEAIQLSVPGSERSYDLTGLKPGTEYSVLIHGVKGGLLSSPLHASFTT | 3.64e+06 RLU | 1e+06 RLU | 277 ratio | 76 ratio
CD71-binding FN3 domain SEQ ID NO 362 (designed binder) MLPAPKNLVVSRVTEDSARLSWTAPDAAFDSFEIAYWENNFNGEAIILIVPGSERSYDLTGLKPGTEYVVFISGVKGGTWSYPLVAQFTT | 4.86e+06 RLU | 2.24e+06 RLU | 102 ratio | 47 ratio
CD71-binding FN3 domain SEQ ID NO 381 (designed binder) MLPAPKNLVVSRVTEDSARLSWTAPDAAFDSFEIAYQELSLWGEAIVLTVPGSERSYDLTGLKPGTEYYVHIGGVKGGIWSRPLSAIFTT | 5.14e+06 RLU | 2.48e+06 RLU | 227 ratio | 110 ratio
CD71-binding FN3 domain SEQ ID NO 418 (designed binder) MLPAPKNLVVSRVTEDSARLSWTAPDAAFDSFEIAYFENSYYGEAIVLTVPGSERSYDLTGLKPGTEYAVYIGGVKGGSWSNPLSAISTT | 5.05e+06 RLU | 1.95e+06 RLU | 77 ratio | 30 ratio
CD71-binding FN3 domain SEQ ID NO 358 (designed binder) MLPAPKNLVVSRVTEDSARLSWTAPDAAFDSFEIGYWENAYKGEAIVLTVPGSERSYDLTGLKPGTEYVVFIGGVKGGVWSVPLSAIFTT | 5.02e+06 RLU | 2.34e+06 RLU | 83 ratio | 39 ratio
CD71-binding FN3 domain SEQ ID NO 429 (designed binder) MLPAPKNLVVSRVTEDSARLSWTAPDAAFDSFEIGYFERSFYGEAIILFVPGSERSYDLTGLKPGTEYAVWIGGVKGGVWSRPLSAIFTT | 4.39e+06 RLU | 1.95e+06 RLU | 280 ratio | 124 ratio
CD71-binding FN3 domain SEQ ID NO 445 (designed binder) MLPAPKNLVVSRVTEDSARLSWTAPDAAFDSFFIGYLEPQPPGEAIHLFVPGSERSYDLTGLKPGTEYNVTIQGVKGGFPSDPLVASFTT | 6.73e+06 RLU | 6.65e+06 RLU | 77 ratio | 76 ratio
CD71-binding FN3 domain SEQ ID NO 441 (designed binder) MLPAPKNLVVSRVTEDSARLSWTAPDAAFDSFFIGYLEPQPPGEAILLWVPGSERSYDLTGLKPGTEYNVTIQGVKGGFPSDPLIANFTT | 5.74e+06 RLU | 5.92e+06 RLU | 31 ratio | 32 ratio
CD71-binding FN3 domain SEQ ID NO 443 (designed binder) MLPAPKNLVVSRVTEDSARLSWTAPDAAFDSFFIGYLEPQPPGEAIELYVPGSERSYDLTGLKPGTEYNVTIQGVKGGFPSDPLHAAFTT | 4.4e+06 RLU | 5.38e+06 RLU | 116 ratio | 142 ratio
